Measured values from patent publication US20160251438A1 (LUDWIG INSTITUTE FOR CANCER RESEARCH, published 2016).

What was measured:
[1] = target: GARP Y137H / TGF-β1 complex (human, UniProt Q14392 20-662; P01137 30-390); experiment: FACS 293T, 5 ug/ml, normalised to anti-HA
Excerpt: (§1) Resolution of the crystal structure of MHG-8 Fab/GARP/TGF-β1 complexes and analysis with the CONTACT software allowed the identification of 22 amino-acids in GARP, 8 amino-acids in LAP and 6 amino-acids in mature TGF-β1 that are located less than 5 Å away from an amino-acid of the light or heavy chain of the MHG-8 Fab (Tables 7a, b and c, and Table 8). Directed mutagenesis was used to construct plasmids encoding HA-tagged forms of GARP or TGF-β1 that are mutated at one, two, or three of these 36 positions (all mutations constructed are indicated in Table 8). […] Antibodies were used at a saturating concentration of 5 μg/ml for labeling. Binding of each antibody to a given mutant GARP/TGF-β1 complex was compared to their binding to wild type (WT) complexes, by determining an I_{m/wt} value (i.e. intensity of binding to mutant by comparison to WT). This value was calculated as follows: I_{m/wt} of antibody X=[Geom on mutant−Geom on control]/[Geom on WT−Geom on control]
(§2) The level of residual binding of anti-GARP or anti-LAP antibodies to each mutant was then calculated by comparison to WT, taking into account the expression levels of mutant and WT forms as measured with anti-HA antibodies. Residual binding was calculated as follows: Residual binding by an anti-GARP or anti-LAP antibody=[I_{m/wt} with anti-GARP or anti-LAP antibody]/[I_{m/wt} with anti-HA antibody]

[2] = target: T1, GARP Y137H/S138G/G139N / TGF-β1 complex (human, UniProt Q14392 20-662; P01137 30-390); experiment: FACS 293T, 5 ug/ml, normalised to anti-HA
Excerpt: as §1, §2

[3] = target: GARP R143Y / TGF-β1 complex (human, UniProt Q14392 20-662; P01137 30-390); experiment: FACS 293T, 5 ug/ml, normalised to anti-HA
Excerpt: as §1, §2

[4] = target: T2, GARP T162D / TGF-β1 complex (human, UniProt Q14392 20-662; P01137 30-390); experiment: FACS 293T, 5 ug/ml, normalised to anti-HA
Excerpt: as §1, §2

[5] = target: GARP R163E / TGF-β1 complex (human, UniProt Q14392 20-662; P01137 30-390); experiment: FACS 293T, 5 ug/ml, normalised to anti-HA
Excerpt: as §1, §2

[6] = target: GARP / TGF-β1 Y336A complex (human, UniProt Q14392 20-662; P01137 30-390); experiment: FACS 293T, 5 ug/ml, normalised to anti-HA
Excerpt: as §1, §2

[7] = target: T3, GARP / TGF-β1 K338E complex (human, UniProt Q14392 20-662; P01137 30-390); experiment: FACS 293T, 5 ug/ml, normalised to anti-HA
Excerpt: as §1, §2

[8] = target: T4, recombinant soluble human GARP-TGFβ1 complex (human, UniProt Q14392 20-628; P01137 30-390); experiment: SPR (Biacore), hGARP-TGFβ1 immobilised
T4 construct: co-expressed in HEK293E, purified by the Strep-Tag; TGFβ consists of LAP and mature TGFβ; also called shGARP-TGFβ; rhGARP-TGFβ

[9] = target: T1, GARP Y137H/S138G/G139N / TGF-β1 complex; experiment: flow cytometry on transfected 293T cells, 5 ug/ml; grade of Loss of binding read by footnote 2
Excerpt: as §1, §2

[10] = target: T2, GARP T162D / TGF-β1 complex; experiment: as above
Excerpt: as §1, §2

[11] = target: GARP R163A/T165A / TGF-β1 complex (human, UniProt Q14392 20-662; P01137 30-390); experiment: as above
Excerpt: as §1, §2

[12] = target: GARP R166M/H167E / TGF-β1 complex (human, UniProt Q14392 20-662; P01137 30-390); experiment: as above
Excerpt: as §1, §2

[13] = target: GARP R170A / TGF-β1 complex (human, UniProt Q14392 20-662; P01137 30-390); experiment: as above
Excerpt: as §1, §2

[14] = target: GARP / TGF-β1 R58A complex (human, UniProt Q14392 20-662; P01137 30-390); experiment: as above
Excerpt: as §1, §2

[15] = target: GARP / TGF-β1 Q269Y complex (human, UniProt Q14392 20-662; P01137 30-390); experiment: as above
Excerpt: as §1, §2

[16] = target: GARP / TGF-β1 H270Y complex (human, UniProt Q14392 20-662; P01137 30-390); experiment: as above
Excerpt: as §1, §2

[17] = target: T3, GARP / TGF-β1 K338E complex; experiment: as above
Excerpt: as §1, §2

[18] = target: GARP / TGF-β1 A341Y complex (human, UniProt Q14392 20-662; P01137 30-390); experiment: as above
Excerpt: as §1, §2

T4 sequence (Q14392 other isoform, or with tags, fused parts or gaps limits assumed, chain 1 of 2): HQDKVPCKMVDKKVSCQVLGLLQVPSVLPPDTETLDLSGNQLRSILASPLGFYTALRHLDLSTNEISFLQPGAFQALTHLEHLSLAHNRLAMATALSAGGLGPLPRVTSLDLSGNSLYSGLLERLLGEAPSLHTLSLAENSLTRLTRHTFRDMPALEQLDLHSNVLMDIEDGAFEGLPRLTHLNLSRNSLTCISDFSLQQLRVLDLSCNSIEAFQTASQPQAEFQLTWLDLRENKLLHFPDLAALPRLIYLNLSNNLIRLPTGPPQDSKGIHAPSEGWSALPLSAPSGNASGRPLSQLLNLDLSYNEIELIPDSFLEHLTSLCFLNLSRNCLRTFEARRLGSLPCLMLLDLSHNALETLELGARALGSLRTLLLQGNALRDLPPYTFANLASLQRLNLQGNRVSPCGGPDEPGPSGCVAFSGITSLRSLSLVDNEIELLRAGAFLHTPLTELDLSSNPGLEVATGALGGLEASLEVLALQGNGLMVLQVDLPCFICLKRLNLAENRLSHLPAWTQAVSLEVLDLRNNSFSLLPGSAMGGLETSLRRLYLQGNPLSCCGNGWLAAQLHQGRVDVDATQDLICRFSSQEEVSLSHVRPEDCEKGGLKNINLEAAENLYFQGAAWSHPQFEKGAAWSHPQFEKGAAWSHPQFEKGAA
T4 sequence (P01137 30-390 limits assumed, chain 2 of 2): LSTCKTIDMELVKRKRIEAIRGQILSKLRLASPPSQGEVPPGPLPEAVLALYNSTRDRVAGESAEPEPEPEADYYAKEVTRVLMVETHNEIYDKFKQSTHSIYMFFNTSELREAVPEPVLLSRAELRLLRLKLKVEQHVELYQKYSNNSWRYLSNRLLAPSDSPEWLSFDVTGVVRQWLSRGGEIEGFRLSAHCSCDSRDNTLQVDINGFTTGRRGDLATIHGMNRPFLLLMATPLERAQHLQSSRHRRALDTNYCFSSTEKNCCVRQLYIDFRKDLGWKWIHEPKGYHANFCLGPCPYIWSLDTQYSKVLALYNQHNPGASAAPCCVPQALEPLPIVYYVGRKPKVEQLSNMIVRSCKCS
T3 sequence (Q14392 20-662 limits assumed, chain 1 of 2): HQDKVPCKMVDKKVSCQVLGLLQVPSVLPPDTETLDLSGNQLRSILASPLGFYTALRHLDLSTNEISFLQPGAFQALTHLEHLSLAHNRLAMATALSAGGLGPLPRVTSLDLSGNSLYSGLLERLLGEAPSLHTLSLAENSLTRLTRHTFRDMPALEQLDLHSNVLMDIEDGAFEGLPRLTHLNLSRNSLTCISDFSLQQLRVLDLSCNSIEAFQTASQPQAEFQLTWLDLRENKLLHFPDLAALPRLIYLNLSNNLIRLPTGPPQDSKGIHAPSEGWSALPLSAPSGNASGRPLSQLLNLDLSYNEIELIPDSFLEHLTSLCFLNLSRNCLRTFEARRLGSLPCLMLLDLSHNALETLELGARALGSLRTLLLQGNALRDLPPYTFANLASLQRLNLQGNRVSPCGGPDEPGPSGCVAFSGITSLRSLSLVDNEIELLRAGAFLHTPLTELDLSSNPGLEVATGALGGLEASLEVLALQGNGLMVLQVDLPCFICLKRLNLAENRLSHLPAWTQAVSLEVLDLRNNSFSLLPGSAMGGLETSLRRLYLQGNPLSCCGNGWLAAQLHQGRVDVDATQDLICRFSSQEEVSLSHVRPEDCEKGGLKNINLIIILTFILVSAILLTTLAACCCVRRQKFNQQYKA
T3 sequence (P01137 30-390 K338E limits assumed, chain 2 of 2): as the sequence (P01137 30-390 limits assumed, chain 2 of 2) above, with K309E counted along it
T2 sequence (Q14392 20-662 T162D limits assumed, chain 1 of 2): as the sequence (Q14392 20-662 limits assumed, chain 1 of 2) above, with T143D counted along it
T2 sequence (P01137 30-390 limits assumed, chain 2 of 2): as the sequence (P01137 30-390 limits assumed, chain 2 of 2) above
T1 sequence (Q14392 20-662 Y137H/S138G/G139N limits assumed, chain 1 of 2): as the sequence (Q14392 20-662 limits assumed, chain 1 of 2) above, with Y118H, S119G, G120N counted along it
T1 sequence (P01137 30-390 limits assumed, stated change not applied, chain 2 of 2): as the sequence (P01137 30-390 limits assumed, chain 2 of 2) above

- residual binding (% of WT) [1]: 62%
- residual binding (% of WT) [2]: 6%
- residual binding (% of WT) [3]: 68%
- residual binding (% of WT) [4]: 49%
- residual binding (% of WT) [5]: 48%
- residual binding (% of WT) [6]: 56%
- residual binding (% of WT) [7]: 15%
- Kd [8]: 0.131 nM
- fold improvement of KD (reference LHG-10) [8]: 1 fold
- fold improvement of ka (reference LHG-10) [8]: 1 fold
- fold improvement of kd (reference LHG-10) [8]: 1 fold
- koff [8]: 3.12e-05 s⁻¹
- kon [8]: 239000 M⁻¹ s⁻¹
- residual binding on mutant by comparison to WT [9]: < 50%
- residual binding on mutant by comparison to WT [10]: < 50%
- residual binding on mutant by comparison to WT [11]: ≥ 50%
- residual binding on mutant by comparison to WT [12]: ≥ 50%
- residual binding on mutant by comparison to WT [13]: ≥ 50%
- residual binding on mutant by comparison to WT [14]: ≥ 50%
- residual binding on mutant by comparison to WT [15]: ≥ 50%
- residual binding on mutant by comparison to WT [16]: ≥ 50%
- residual binding on mutant by comparison to WT [17]: < 50%
- residual binding on mutant by comparison to WT [18]: ≥ 50%
B1: LHG-10 (antibody, human IgG1, V domains shown)
VH: EVQLVQPGAELRNSGASVKVSCKASGYRFTSYYIDWVRQAPGQGLEWMGRIDPEDGGTKYAQKFQGRVTFTADTSTSTAYVELSSLRSEDTAVYYCARNEWETVVVGDLMYEYEYWGQGTQVTVSS
VL: DIQMTQSPTSLSASLGDRVTITCQASQSISSYLAWYQQKPGQAPKLLIYGASRLQTGVPSRFSGSGSGTSFTLTISGLEAEDAGTYYCQQYDSLPVTFGQGTKVELK
notes: llama-derived V regions in a full human IgG1
